Target: T1, mouse IL‐2Rα on 293T cells (293Tα) (mouse, UniProt P01590 22-268)
T1 sequence: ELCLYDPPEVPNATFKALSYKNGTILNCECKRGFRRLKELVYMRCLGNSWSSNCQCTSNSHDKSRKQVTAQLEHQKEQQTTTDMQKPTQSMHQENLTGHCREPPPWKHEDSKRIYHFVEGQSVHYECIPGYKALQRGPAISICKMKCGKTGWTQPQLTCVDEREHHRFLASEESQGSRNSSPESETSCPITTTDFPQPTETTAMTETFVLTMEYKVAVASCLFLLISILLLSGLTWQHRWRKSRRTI
Test: binding of NanoLuc fusion proteins to cells

B1: Mutakine‐6 (MK‐6), IL‐2 K35A/R38A/K43A/Y45A on the MK‐0 template, fused to NanoLuc (ligand)
chain: APASSSTKKTQLQLEHLLLDLQMILNGINNYKNPALTAMLTFAFAMPKKATELKHLQCLEEELKPLEEVLNLAQSKNFHLRPRDLISNINVIVLELKGSETTFMCEYADETATIVEFLNRWITFAQSIISTLT
mouse 293Tα/293T ratio: 1.8 ratio

Source: publication PMC8586658 (Cancer Science, 2021)
